Literature values in PMC4411102 (PLoS ONE, 2015).

System: HIV
Excerpt: HIV-1 infection can be targeted at various stages, for example, viral entry, viral replication or assembly of viral components. HIV entry into the host cells is facilitated by binding of viral envelope glycoprotein (gp120) to host CD4 receptor [3, 4]. CD4-gp120 interaction initiates a cascade of events that stimulates gp41 to promote viral and host membrane fusion. Inhibition of gp120-CD4 interaction or virus-host cell fusion thus appears to be an attractive strategy to prevent HIV-1 infection. Towards this, significant advances have been made. […] Moreover, some of the AMPs cause adverse effects on vaginal commensals like lactobacilli which are required to maintain low pH in vaginal mucosa.

B1: human defensin-5: antimicrobial peptide (peptide, UniProt Q01523 20-94, looked up)
Defensin alpha 5: ESLQERADEATTQKQSGEDNQDLAISFAGNGLSALRTSGSQARATCYCRTGRCATRESLSGVCEISGRLYRLCCR
modifications: Defensin-5
notes: antimicrobial peptide
For B1, the “Effect on HIV infection” value is given as “exacerbate HIV infection”.

B2: secretory leucocyte protease inhibitor (SLPI): natural antimicrobial peptide (protein, UniProt P03973 26-132, looked up)
Antileukoproteinase: SGKSFKAGVCPPKKSAQCLRYKKPECQSDWQCPGKKRCCPDTCGIKCLDPVDTPNPTRRKPGKCPVTYGQCLMLNPPNFCEMDGQCKRDLKCCMGMCGKSCVSPVKA
In the case of B2, the Anti-HIV activity is given as “reported to have anti-HIV activity”.
